Molecular target: recombinant human TGF-β1 (human) (UniProt P01137)
Test: cell-based or functional assay

Sequence of recombinant human TGF-β1 (human) (P01137 279-390 limits assumed): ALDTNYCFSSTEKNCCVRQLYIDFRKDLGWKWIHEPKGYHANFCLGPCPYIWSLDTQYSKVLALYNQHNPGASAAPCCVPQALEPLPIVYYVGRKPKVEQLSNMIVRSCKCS

B1: anti-TGF-β (αTGF-β, 1D11 clone) (antibody, from another filing, V domains shown)
VH: QVQLQQSGPELVRPGASVKLSCKASGYIFITYWMNWVKQRPGQGLEWIGQIFPASGSTNYNEMFEGKATLTVDTSSSTAYMQLSSLTSEDSAVYYCARGDGNYALDAMDYWGQGTSVTVSS
VL: DIVLTQSPASLAVSLGQRATISCRASESVDSYGNSFMHWYQQKSGQPPKLLIYLASNLESGVPARFSGSGSRTDFTLTIDPVEADDAATYYCQQNNEDPLTFGAGTKLEIK
Question: B1 was tested. Which 80% maximal inhibition (IC80), TGF-β signaling reporter assay (TGF-β/SMAD luciferase in HEK293 cells, 10 ng/mL recombinant human TGF-β1) did it give?
Answer: 25 nM
